Assay results reported in the supplement of paper PMC11246515.
± gives the standard deviation of the averaged measurements.

Assay: total protein half-life in vivo (active degradation + dilution); higher = more stable protein
[1] = E. coli NCM3722 delta-clpP delta-lon delta-hslV, growth: N-lim chemostat, doubling time 6 h
[2] = E. coli NCM3722 delta-hslV, growth: N-lim chemostat, doubling time 6 h
[3] = E. coli NCM3722 delta-smpB, growth: N-lim chemostat, doubling time 6 h
[4] = wild type E. coli NCM3722, growth: C-lim chemostat, doubling time 3 h
[5] = wild type E. coli NCM3722, growth: C-lim chemostat, doubling time 6 h
[6] = wild type E. coli NCM3722, growth: C-lim chemostat, doubling time 12 h
[7] = wild type E. coli NCM3722, growth: N-lim chemostat, doubling time 6 h
[8] = wild type E. coli NCM3722, growth: N-lim chemostat, doubling time 12 h
[9] = wild type E. coli NCM3722, growth: P-lim chemostat, doubling time 6 h
[10] = wild type E. coli NCM3722, growth: P-lim chemostat, doubling time 12 h
[11] = E. coli NCM3722 delta-clpP, growth: N-lim chemostat, doubling time 6 h
[12] = E. coli NCM3722 delta-lon, growth: N-lim chemostat, doubling time 6 h

| Sequence | total protein half-life in vivo [1] | total protein half-life in vivo [2] | total protein half-life in vivo [3] | total protein half-life in vivo [4] | total protein half-life in vivo [5] | total protein half-life in vivo [6] | total protein half-life in vivo [7] | total protein half-life in vivo [8] | total protein half-life in vivo [9] | total protein half-life in vivo [10] | total protein half-life in vivo [11] | total protein half-life in vivo [12] |
| --- | --- | --- | --- | --- | --- | --- | --- | --- | --- | --- | --- | --- |
| MFNRPNRNDVDDGVQDIQNDVNQLADSLESVLKSWGSDAKGEAEAARSKAQALLKETRARMHGRTRVQQAARDAVGCADSFVRERPWCSVGTAAAVGIFIGALLSMRKS [P0ADQ7] | 5.92 ± 0.068 h | 7.51 ± 0.67 h | 4.83 ± 0.087 h | 2.37 ± 0.46 h | 5.79 ± 0.34 h | 9.97 ± 1.7 h | 5.55 ± 0.094 h | 11.3 ± 1.4 h | 5.17 ± 0.21 h | 10.8 ± 0.18 h | – | – |
| MFPFRRNVLAFAALLALSSPVLAGKLAIVIDDFGYRPHNENQVLAMPSAISVAVLPDSPHAREMATKAHNSGHEVLIHLPMAPLSKQPLEKNTLRPEMSSDEIERIIRSAVNNVPYAVGINNHMGSKMTSNLFGMQKVMQALERYNLYFLDSVTIGNTQAMRAAQGTGVKVIKRKVFLDDSQNEADIRVQFNRAIDLARRNGSTIAIGHPHPATVRVLQQMVYNLPPDITLVKASSLLNEPQVDTSTPPKNAVPDAPRNPFRGVKLCKPKKPIEPVYANRFFEVLSESISQSTLIVYFQHQWQGWGKQPEAAKFNASAN | 5.42 ± 0.15 h | 6.09 ± 0.91 h | 4.79 h | 3.38 h | – | 11.2 ± 1.3 h | 6.68 ± 0.97 h | 9.34 h | – | 8.02 h | 6.23 h | – |
| MFPPMWRRLIYHPDINYALRQTLVLCLPVAVGLMLGELRFGLLFSLVPACCNIAGLDTPHKRFFKRLIIGASLFATCSLLTQLLLAKDVPLPFLLTGLTLVLGVTAELGPLHAKLLPASLLAAIFTLSLAGYMPVWEPLLIYALGTLWYGLFNWFWFWIWREQPLRESLSLLYRELADYCEAKYSLLTQHTDPEKALPPLLVRQQKAVDLITQCYQQMHMLSAQNNTDYKRMLRIFQEALDLQEHISVSLHQPEEVQKLVERSHAEEVIRWNAQTVAARLRVLADDILYHRLPTRFTMEKQIGALEKIARQHPDNPVGQFCYWHFSRIARVLRTQKPLYARDLLADKQRRMPLLPALKSYLSLKSPALRNAGRLSVMLSVASLMGTALHLPKSYWILMTVLLVTQNGYGATRLRIVNRSVGTVVGLIIAGVALHFKIPEGYTLTLMLITTLASYLILRKNYGWATVGFTITAVYTLQLLWLNGEQYILPRLIDTIIGCLIAFGGTVWLWPQWQSGLLRKNAHDALEAYQEAIRLILSEDPQPTPLAWQRMRVNQAHNTLYNSLNQAMQEPAFNSHYLADMKLWVTHSQFIVEHINAMTTLAREHRALPPELAQEYLQSCEIAIQRCQQRLEYDEPGSSGDANIMDAPEMQPHEGAAGTLEQHLQRVIGHLNTMHTISSMAWRQRPHHGIWLSRKLRDSKA | 6.2 ± 0.17 h | 4.97 ± 0.47 h | 5.02 ± 0.33 h | > 4 h | 5.87 h | 13.4 ± 0.3 h | 6.05 ± 0.55 h | – | 6.24 ± 0.091 h | 12.2 ± 0.44 h | 6.9 h | 5.47 ± 0.38 h |
| MFQDNPLLAQLKQQLHSQTPRAEGVVKATEKGFGFLEVDAQKSYFIPPPQMKKVMHGDRIIAVIHSEKERESAEPEELVEPFLTRFVGKVQGKNDRLAIVPDHPLLKDAIPCRAARGLNHEFKEGDWAVAEMRRHPLKGDRSFYAELTQYITFGDDHFVPWWVTLARHNLEKEAPDGVATEMLDEGLVREDLTALDFVTIDSASTEDMDDALFAKALPDDKLQLIVAIADPTAWIAEGSKLDKAAKIRAFTNYLPGFNIPMLPRELSDDLCSLRANEVRPVLACRMTLSADGTIEDNIEFFAATIESKAKLVYDQVSDWLENTGDWQPESEAIAEQVRLLAQICQRRGEWRHNHALVFKDRPDYRFILGEKGEVLDIVAEPRRIANRIVEEAMIAANICAARVLRDKLGFGIYNVHMGFDPANADALAALLKTHGLHVDAEEVLTLDGFCKLRRELDAQPTGFLDSRIRRFQSFAEISTEPGPHFGLGLEAYATWTSPIRKYGDMINHRLLKAVIKGETATRPQDEITVQMAERRRLNRMAERDVGDWLYARFLKDKAGTDTRFAAEIVDISRGGMRVRLVDNGAIAFIPAPFLHAVRDELVCSQENGTVQIKGETVYKVTDVIDVTIAEVRMETRSIIARPVA | 6.36 ± 1.1 h | 4.41 ± 0.31 h | 3.92 ± 0.095 h | 2.74 ± 0.38 h | 5.8 ± 0.41 h | 10 ± 3.6 h | 4.3 ± 0.15 h | 7.65 ± 0.77 h | 4.66 ± 0.14 h | 8.07 ± 0.19 h | 5.31 ± 0.54 h | 4.57 ± 0.42 h |
| MFQKVDAYAGDPILTLMERFKEDPRSDKVNLSIGLYYNEDGIIPQLQAVAEAEARLNAQPHGASLYLPMEGLNCYRHAIAPLLFGADHPVLKQQRVATIQTLGGSGALKVGADFLKRYFPESGVWVSDPTWENHVAIFAGAGFEVSTYPWYDEATNGVRFNDLLATLKTLPARSIVLLHPCCHNPTGADLTNDQWDAVIEILKARELIPFLDIAYQGFGAGMEEDAYAIRAIASAGLPALVSNSFSKIFSLYGERVGGLSVMCEDAEAAGRVLGQLKATVRRNYSSPPNFGAQVVAAVLNDEALKASWLAEVEEMRTRILAMRQELVKVLSTEMPERNFDYLLNQRGMFSYTGLSAAQVDRLREEFGVYLIASGRMCVAGLNTANVQRVAKAFAAVM | 4.07 ± 1.2 h | 2.54 ± 0.061 h | 2.676 ± 0.003 h | 3.06 ± 0.56 h | 4.92 ± 0.29 h | 7.47 ± 0.87 h | 2.62 ± 0.058 h | 3.66 ± 0.17 h | 5.28 ± 0.29 h | 9.773 ± 0.058 h | 2.43 ± 0.047 h | 3.01 ± 0.049 h |
